Laboratory results reported in US20200216532A1.
Residue numbers refer to the chain shown, from its start. Names and notes keep the numbering of the source.

B1: NB 3.12 (VHH)
VHH: EVQLVESGGGLVQAGGSLRLSCAASRSIGRLDRMGWYRHRPGEPRELVATITGGSSINYGDSVKGRFTISIDNSKNTVYLQMNSLRPEDTAVYYCNFNKYVTSRDTWGQGTQVTVSS
B2: NB 3.15 (VHH)
VHH: B1 VHH with L11S, A14P, Q112L
B3: NB 3.11 (VHH)
VHH: B1 VHH with A14P, R86K, Q112L
B4: NB 3.14 (VHH)
VHH: B1 VHH with A14P, Q112L, T114Q
B5: NB 3.13 (VHH)
VHH: B1 VHH with A14P
B6: NB 3.10 (VHH)
VHH: B1 VHH with Q112L
B7: SEQ ID NO: 23, Wildtype VHH (VHH)
VHH: EVQLVESGGGLVQAGGSLRLSCAASGRTFNNYAMGWFRRAPGKEREFVAAITRSGVRSGVSAIYGDSVKDRFTISRDNAKNTLYLQMNSLKPEDTAVYTCAASAIGSGALRRFEYDYSGQGTQVTVSS
B8: SEQ ID NO: 25, Wildtype VHH + K83R (VHH)
VHH: B7 VHH with K91R
B9: SEQ ID NO: 26, Wildtype VHH + Q108L (VHH)
VHH: B7 VHH with Q123L
B10: SEQ ID NO: 24, Wildtype VHH + A14P (VHH)
VHH: B7 VHH with A14P
B11: SEQ ID NO: 29, Wildtype VHH + A14P + R39Q + K83R + T91Y + Q108L + 1 additional A at C-terminus (A114) (VHH)
VHH: B7 VHH with A14P, R39Q, K91R, T99Y, Q123L
B12: SEQ ID NO: 30, Wildtype VHH + A14P + R39Q + K83R + T91Y + Q108L + 3 A's at C-terminus (A114 + A115 + A116) (VHH)
VHH: B7 VHH with A14P, R39Q, K91R, T99Y, Q123L
B13: SEQ ID NO: 28, Wildtype VHH + A14P + R39Q + K83R + T91Y + Q108L (VHH)
VHH: B7 VHH with A14P, R39Q, K91R, T99Y, Q123L
B14: SEQ ID NO: 27, Wildtype VHH + A14P + K83R + Q108L (VHH)
VHH: B7 VHH with A14P, K91R, Q123L

What follows are binders tested against analytical polyclonal antibody generated in Example 2 (assay: SPR Biacore T100, polyclonal immobilized, 500 nM ISV).

| Binding (RU) at end of injection | Binder |
| --- | --- |
| 86 RU | B1 |
| 22 RU | B2 |
| 88 RU | B3 |
| 79 RU | B4 |
| 90 RU | B5 |
| 91 RU | B6 |

These binders were tested against antibodies against ISV in serum sample IHUS#B09032311A20 (assay: ECL drug-displacement assay vs labelled SEQ ID NO:1).

| % reduction | ECLU confirmatory assay | Binder |
| --- | --- | --- |
| 53% | 8680 ECLU | B7 |
| 63% | 6910 ECLU | B8 |
| 62% | 6990 ECLU | B9 |
| 96% | 668 ECLU | B10 |

The binders below were run against antibodies against ISV in serum sample IHUS#B09032311A3 in the same assay as above.

| % reduction | ECLU confirmatory assay | Binder |
| --- | --- | --- |
| 20% | 1780 ECLU | B7 |
| 18% | – | B11 |
| 13% | – | B12 |
| 90% | – | B13 |
| 37% | 1400 ECLU | B8 |
| 31% | 1530 ECLU | B9 |
| 91% | 205 ECLU | B10 |

The binders below were run against antibodies against ISV in serum sample IHUS#B09032311A1 in the same assay as above.

| % reduction | ECLU confirmatory assay | Binder |
| --- | --- | --- |
| 4% | 60 ECLU | B7 |
| 1% | 62 ECLU | B8 |
| 5% | 59 ECLU | B9 |
| 10% | 56 ECLU | B10 |

Each binder was assayed against affinity purified antibody IHuP#002-001-ABL-08 (assay: bridging/competition ADA assay, 10 ug/ml ISV vs labelled ISV).

| % reduction | ECLU confirmatory assay | Binder |
| --- | --- | --- |
| 7.3% | 2710 ECLU | B7 |
| 58.6% | 1210 ECLU | B11 |
| -13.1% | 3300 ECLU | B12 |
| 89.1% | 319 ECLU | B14 |
| 91.4% | 251 ECLU | B13 |
| 15.7% | 2460 ECLU | B8 |
| 13.2% | 2530 ECLU | B9 |
| 90.8% | 268 ECLU | B10 |
